Test results from PMC4426631, “Insect antimicrobial peptides show potentiating functional interactions against Gram-negative bacteria” (Proceedings of the Royal Society B: Biological Sciences, 2015).
Cf = 5(6)-carboxyfluorescein

B1: Metalnikowin I (P1), Palomena prasina, Cf-VDKPDYRPRPRPPNM-NH2 (peptide)
peptide: Cf-VDKPDYRPRPRPPNM-NH2
notes: metalnikowin I of Palomena prasina; source: synthetic peptide (PANATecs, Tübingen), purified to >95%
B2: Metalnikowin IIA (P2), Palomena prasina, Cf-VDKPDYRPRPWPRPN-NH2 (peptide)
peptide: Cf-VDKPDYRPRPWPRPN-NH2
notes: metalnikowin IIA of Palomena prasina; source: synthetic peptide (PANATecs, Tübingen), purified to >95%
B3: Metchnikowin-1 (P4), Drosophila melanogaster, Cf-[residues removed]-NH2 (peptide)
peptide: Cf-HRHQGPIFDTRPSPFNPNQPRPGPIY-NH2
notes: metchnikowin 1 of Drosophila melanogaster; source: synthetic peptide (PANATecs, Tübingen), purified to >95%
B4: Abaecin (P3), Bombus pascuorum, Cf-[residues removed]-NH2 (peptide)
peptide: Cf-FVPYNPPRPGQSKPFPSFPGHGPFNPKIQWPYPLPNPGH-NH2
notes: abaecin of Bombus pascuorum, 39 residues; also called B. pascuorum abaecin; source: synthetic peptide (PANATecs, Tübingen), purified to >95%
B5: Metchnikowin-2 (P5), Drosophila melanogaster, Cf-[residues removed]-NH2 (peptide)
peptide: Cf-HRRQGPIFDTRPSPFNPNQPRPGPIY-NH2
notes: metchnikowin 2 of Drosophila melanogaster; source: synthetic peptide (PANATecs, Tübingen), purified to >95%

Target: T1, DnaK–BHQ10 (E. coli chaperone DnaK labelled with Black Hole Quencher 10) (E. coli, UniProt P0A6Y8 1-638, BHQ10 (from BHQ10-NHS-ester), labelling ratio 1 : 9 DnaK : BHQ10)
T1 construct: chaperone DnaK of Escherichia coli; also called bacterial DnaK; quencher-labelled bacterial DnaK probe; source: produced by Michael Zahn [50]; dialysed and labelled with BHQ10-NHS-ester
Experiment: FRET or BRET; FRET-based quenching assay in solution: fluorescein-modified peptide (50 μl, 1.3 nmol/l) mixed with a serial dilution of DnaK–BHQ10 (50 μl, 0.8–13 000 nmol/l, 1 : 4 series) in modifying buffer (20 mmol/l Na2HPO4, 20 mmol/l KH2PO4, 5 mmol/l MgCl2, 150 mmol/l KCl, pH 7.4), black 384-well plate, 2 h; Kd by non-linear regression (dose-response logistical function, SlideWrite) of quenching against DnaK …
Conditions: both partners purified

T1 sequence (P0A6Y8 whole entry): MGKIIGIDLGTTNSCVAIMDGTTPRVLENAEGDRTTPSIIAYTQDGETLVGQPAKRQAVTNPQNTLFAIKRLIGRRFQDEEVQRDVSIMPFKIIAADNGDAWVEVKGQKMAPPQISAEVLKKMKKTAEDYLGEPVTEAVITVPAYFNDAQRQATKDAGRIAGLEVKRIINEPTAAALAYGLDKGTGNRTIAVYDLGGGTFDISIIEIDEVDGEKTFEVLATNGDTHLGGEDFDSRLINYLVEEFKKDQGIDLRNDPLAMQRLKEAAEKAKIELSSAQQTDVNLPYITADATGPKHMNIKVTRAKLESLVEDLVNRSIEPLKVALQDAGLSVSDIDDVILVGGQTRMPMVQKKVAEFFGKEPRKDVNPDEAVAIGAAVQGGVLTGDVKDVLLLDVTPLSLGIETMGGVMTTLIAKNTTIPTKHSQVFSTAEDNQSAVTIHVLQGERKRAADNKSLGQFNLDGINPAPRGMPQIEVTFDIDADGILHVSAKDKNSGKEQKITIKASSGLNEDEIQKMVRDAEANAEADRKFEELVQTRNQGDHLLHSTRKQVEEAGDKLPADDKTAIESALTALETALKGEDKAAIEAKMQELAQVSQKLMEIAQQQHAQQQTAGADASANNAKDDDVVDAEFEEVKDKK

| Binder | Kd [µM] |
| --- | --- |
| B1 | > 5 |
| B2 | > 5 |
| B3 | > 5 |
| B4 | 0.19 ± 0.03 |
| B5 | > 5 |
